Laboratory results as given in US20180244760A1 (UNIVERSITY OF MARYLAND BALTIMORE, published 2018).

Experiments:
[1] = target: T1, Clostridium difficile toxin B (TcdB) (Clostridium difficile, UniProt P18177 2-2366); test: ELISA, plate coated with 1 ug/ml TcdB
T1 construct: also called TxB

[2] = target: T1, Clostridium difficile toxin B (TcdB); test: cell-based or functional assay
[3] = target: T1, Clostridium difficile toxin B (TcdB); test: sandwich ELISA: TcdB coated, Habab titrated, TcdA at 40 ng/ml detected

T1 sequence (P18177 2-2366 limits assumed): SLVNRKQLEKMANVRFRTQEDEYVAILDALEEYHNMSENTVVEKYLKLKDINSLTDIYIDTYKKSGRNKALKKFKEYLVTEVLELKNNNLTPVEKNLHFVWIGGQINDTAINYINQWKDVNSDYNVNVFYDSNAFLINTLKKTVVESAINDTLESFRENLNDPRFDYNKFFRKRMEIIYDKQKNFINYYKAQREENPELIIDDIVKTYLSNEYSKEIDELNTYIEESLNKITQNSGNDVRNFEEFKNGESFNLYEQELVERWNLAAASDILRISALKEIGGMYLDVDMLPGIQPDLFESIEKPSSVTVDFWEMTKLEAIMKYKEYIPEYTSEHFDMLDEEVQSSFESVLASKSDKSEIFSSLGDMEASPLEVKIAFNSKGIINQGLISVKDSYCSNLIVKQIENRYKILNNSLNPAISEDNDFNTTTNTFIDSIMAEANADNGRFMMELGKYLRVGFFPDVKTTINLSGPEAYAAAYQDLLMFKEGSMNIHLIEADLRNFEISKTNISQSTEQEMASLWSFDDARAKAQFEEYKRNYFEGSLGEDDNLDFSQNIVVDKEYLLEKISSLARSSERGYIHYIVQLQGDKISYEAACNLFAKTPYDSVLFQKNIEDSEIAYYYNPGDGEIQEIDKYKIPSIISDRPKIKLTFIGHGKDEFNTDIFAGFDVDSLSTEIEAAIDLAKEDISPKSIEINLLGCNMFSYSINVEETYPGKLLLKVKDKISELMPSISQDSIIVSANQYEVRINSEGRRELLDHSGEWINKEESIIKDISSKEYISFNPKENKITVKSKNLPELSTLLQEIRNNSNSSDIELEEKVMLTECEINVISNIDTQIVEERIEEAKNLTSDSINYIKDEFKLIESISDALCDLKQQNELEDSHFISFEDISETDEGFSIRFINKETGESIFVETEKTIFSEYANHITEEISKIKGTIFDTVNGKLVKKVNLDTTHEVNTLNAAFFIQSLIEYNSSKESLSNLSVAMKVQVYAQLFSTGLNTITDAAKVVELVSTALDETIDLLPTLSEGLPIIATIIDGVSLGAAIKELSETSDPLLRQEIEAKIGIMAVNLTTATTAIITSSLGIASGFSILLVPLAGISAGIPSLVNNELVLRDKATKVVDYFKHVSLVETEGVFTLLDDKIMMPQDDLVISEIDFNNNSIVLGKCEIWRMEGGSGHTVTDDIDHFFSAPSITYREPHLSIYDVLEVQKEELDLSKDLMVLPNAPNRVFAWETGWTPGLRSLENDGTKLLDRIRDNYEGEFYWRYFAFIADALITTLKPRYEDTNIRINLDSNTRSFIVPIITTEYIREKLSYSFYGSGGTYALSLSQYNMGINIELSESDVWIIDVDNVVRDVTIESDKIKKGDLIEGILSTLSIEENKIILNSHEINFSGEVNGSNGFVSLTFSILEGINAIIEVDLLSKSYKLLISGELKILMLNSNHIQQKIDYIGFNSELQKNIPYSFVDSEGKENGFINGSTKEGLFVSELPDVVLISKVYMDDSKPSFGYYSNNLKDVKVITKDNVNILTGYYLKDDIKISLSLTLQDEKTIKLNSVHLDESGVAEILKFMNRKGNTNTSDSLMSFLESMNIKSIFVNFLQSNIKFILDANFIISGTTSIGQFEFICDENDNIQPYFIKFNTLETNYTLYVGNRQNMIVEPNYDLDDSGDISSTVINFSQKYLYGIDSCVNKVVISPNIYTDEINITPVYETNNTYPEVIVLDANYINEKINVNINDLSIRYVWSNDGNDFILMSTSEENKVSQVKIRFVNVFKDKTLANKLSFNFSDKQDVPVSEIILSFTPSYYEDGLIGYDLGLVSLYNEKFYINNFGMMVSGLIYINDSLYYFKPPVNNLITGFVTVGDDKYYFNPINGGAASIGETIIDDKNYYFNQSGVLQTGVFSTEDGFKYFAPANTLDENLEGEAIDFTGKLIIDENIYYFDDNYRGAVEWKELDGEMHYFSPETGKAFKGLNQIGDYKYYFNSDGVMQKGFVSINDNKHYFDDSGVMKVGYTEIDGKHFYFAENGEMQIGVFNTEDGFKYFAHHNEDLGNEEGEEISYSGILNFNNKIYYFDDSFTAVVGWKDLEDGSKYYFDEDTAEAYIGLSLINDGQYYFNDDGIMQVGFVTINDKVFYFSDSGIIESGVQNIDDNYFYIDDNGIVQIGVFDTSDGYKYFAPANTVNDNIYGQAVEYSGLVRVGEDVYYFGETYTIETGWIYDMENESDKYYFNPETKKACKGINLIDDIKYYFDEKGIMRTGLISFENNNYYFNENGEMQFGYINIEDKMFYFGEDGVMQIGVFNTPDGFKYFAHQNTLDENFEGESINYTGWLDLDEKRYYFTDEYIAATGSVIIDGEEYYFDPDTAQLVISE

Row | Binder | EC50 (read off the curve) [1] | neutralization of the TcdB cytopathic effect on Vero cells, fold potency over the Merck antibody [2] | EC50 (read off the curve) [3]
1 | VHH peptide monomer E3 (VHH, also called VHH E3) VHH: QVQLVESGGGLVQTGGSLRLSCASSGSIAGFETVTWSRQAPGKSLQWVASMTKTNNEIYSDSVKGRFIISRDNAKNTVYLQMNSLKPEDTGVYFCKGPELRGQGIQVTVSS | ~0.01 µg/mL |  | 
2 | ABAB-IgG1 tetra-specific, octameric binding agent (bispecific antibody, also called IgG-ABAB; IgG-ABBA) heavy: not shown light: QLQLVETGGGLVQPGGSLRLSCAASGFTFSDYVMTWVRQAPGKGPEWIATINTDGSTMRDDSTKGRFTISRDNAKNTLYLQMTSLKPEDTALYYCARGRVISASAIRGAVRGPGTQVTVSSGGGGSGGGGSGGGGSQVQLVESGGGLVQTGGSLRLSCASSGSIAGFETVTWSRQAPGKSLQWVASMTKTNNEIYSDSVKGRFIISRDNAKNTVYLQMNSLKPEDTGVYFCKGPELRGQGIQVTVSSRTVAAPSVFIFPPSDEQLKSGTASVVCLLNNFYPREAKVQWKVDNALQSGNSQESVTEQDSKDSTYSLSSTLTLSKADYEKHKVYACEVTHQGLSSPVTKSFNRGEC |  | ≥ 1000 fold | ~0.05 µg/mL
